Source: patent US20240034774A1 (Gilead, published 2024)
Changes are numbered by the printed parent chain.

B1: 1.21.1-1 (antibody, human IgG1, kappa)
heavy: QVQLLQSGAAVTKPGASVRVSCEASGYNIRDYFIHWWRQAPGQGLQWVGWINPKTGQPNNPRQFQGRVSLTRDASWDFDTFSFYMDLKALRSDDTAVYFCARQRSDYWDFDVWGSGTQVTVSSASTKGPSVFPLAPSSKSTSGGTAALGCLVKDYFPEPVTVSWNSGALTSGVHTFPAVLQSSGLYSLSSVVTVPSSSLGTQTYICNVNHKPSNTKVDKKVEPKSCDKTHTCPPCPAPELLAGPDVFLFPPKPKDTLMISRTPEVTCVVVDVSHEDPEVKFNWYVDGVEVHNAKTKPREEQYNSTYRVVSVLTVLHQDWLNGKEYKCKVSNKALPLPEEKTISKAKGQPREPQVYTLPPSREEMTKNQVSLTCLVKGFYPSDIAVEWESNGQPENNYKTTPPVLDSDGSFFLYSKLTVDKSRWQQGNVFSCSVLHEALHSHYTQKSLSLSPGK
light: DIQMTQSPSSLSASVGDTVTITCQANGYLNWYQQRRGKAPKLLIYDGSKLERGVPSRFSGRRWGQEYNLTINNLQPEDIATYFCQVYEFVVPGTRLDLKRTVAAPSVFIFPPSDEQLKSGTASVVCLLNNFYPREAKVQWKVDNALQSGNSQESVTEQDSKDSTYSLSSTLTLSKADYEKHKVYACEVTHQGLSSPVTKSFNRGEC
B2: 1.31.32-1 (antibody, human IgG1, kappa)
heavy: B1 heavy with L5V, A10E, D73H, V97T
light: B1 light with N68T, N72S, N73S, V91T
B3: 1.30.1-1 (antibody, human IgG1, kappa)
heavy: B1 heavy with D73H, Q118M
light: B1 light
B4: 1.33.1-1 (antibody, human IgG1, kappa)
heavy: B1 heavy with L5V, A10E, T12K, E23K, S69T, D73H, V97T
light: B1 light
B5: 1.33.31-1 (antibody, human IgG1, kappa)
heavy: B1 heavy with L5V, A10E, T12K, E23K, S69T, D73H, V97T
light: B1 light with N68T, N72S, N73S, R95N
B6: 1.32.33-1 (antibody, human IgG1, kappa)
heavy: B1 heavy with L5V, A10E, D73H, S105T
light: B1 light with K49N, N68T, N72S, N73S, R95N, L98I
B7: 1.25.1-1 (antibody, human IgG1, kappa)
heavy: B1 heavy with D73H, K88S, A89R
light: B1 light
B8: 1.27.1-1 (antibody, human IgG1, kappa)
heavy: B1 heavy with D73H, S105T
light: B1 light
B9: 1.33.33-1 (antibody, human IgG1, kappa)
heavy: B1 heavy with L5V, A10E, T12K, E23K, S69T, D73H, V97T
light: B1 light with K49N, N68T, N72S, N73S, R95N, L98I
B10: 1.31.33-1 (antibody, human IgG1, kappa)
heavy: B1 heavy with L5V, A10E, D73H, V97T
light: B1 light with K49N, N68T, N72S, N73S, R95N, L98I
B11: 1.34.1-1 (antibody, human IgG1, kappa)
heavy: B1 heavy with L5V, A10E, T12K, E23K, S69T, D73H, S105T
light: B1 light
B12: 1.31.1-1 (antibody, human IgG1, kappa)
heavy: B1 heavy with L5V, A10E, D73H, V97T
light: B1 light
B13: 1.32.32-1 (antibody, human IgG1, kappa)
heavy: B1 heavy with L5V, A10E, D73H, S105T
light: B1 light with N68T, N72S, N73S, V91T
B14: 1.34.31-1 (antibody, human IgG1, kappa)
heavy: B1 heavy with L5V, A10E, T12K, E23K, S69T, D73H, S105T
light: B1 light with N68T, N72S, N73S, R95N
B15: 1.31.31-1 (antibody, human IgG1, kappa)
heavy: B1 heavy with L5V, A10E, D73H, V97T
light: B1 light with N68T, N72S, N73S, R95N
B16: 1.34.32-1 (antibody, human IgG1, kappa)
heavy: B1 heavy with L5V, A10E, T12K, E23K, S69T, D73H, S105T
light: B1 light with N68T, N72S, N73S, V91T
B17: 1.29.1-1 (antibody, human IgG1, kappa)
heavy: B1 heavy with D73H, S115Q
light: B1 light
B18: 1.32.31-1 (antibody, human IgG1, kappa)
heavy: B1 heavy with L5V, A10E, D73H, S105T
light: B1 light with N68T, N72S, N73S, R95N
B19: 1.32.1-1 (antibody, human IgG1, kappa)
heavy: B1 heavy with L5V, A10E, D73H, S105T
light: B1 light
B20: 1.28.1-1 (antibody, human IgG1, kappa)
heavy: B1 heavy with D73H, V97T, S105T
light: B1 light
B21: 1.32.34-1 (antibody, human IgG1, kappa)
heavy: B1 heavy with L5V, A10E, D73H, S105T
light: B1 light with K49N, N68T, N72S, N73S, V91T, L98I
B22: 1.31.34-1 (antibody, human IgG1, kappa)
heavy: B1 heavy with L5V, A10E, D73H, V97T
light: B1 light with K49N, N68T, N72S, N73S, V91T, L98I
B23: 1.26.1-1 (antibody, human IgG1, kappa)
heavy: B1 heavy with D73H, V97T
light: B1 light
B24: 1.33.32-1 (antibody, human IgG1, kappa)
heavy: B1 heavy with L5V, A10E, T12K, E23K, S69T, D73H, V97T
light: B1 light with N68T, N72S, N73S, V91T
B25: 1.33.34-1 (antibody, human IgG1, kappa)
heavy: B1 heavy with L5V, A10E, T12K, E23K, S69T, D73H, V97T
light: B1 light with K49N, N68T, N72S, N73S, V91T, L98I
B26: 1.24.1-1 (antibody, human IgG1, kappa)
heavy: B1 heavy with D73H, Y84S
light: B1 light

biological target: gp120 SHIV SF162 P3 (SHIV SF162 P3); experiment: single-point ELISA at EC50 conc. of A-1

Binder	ELISA A450 [A450]
B1	0.82
B2	0.91
B3	1.03
B4	0.96
B5	0.89
B6	0.71
B7	1.03
B8	0.86
B9	0.97
B10	0.74
B11	0.79
B12	0.87
B13	0.7
B14	0.77
B15	0.97
B16	0.69
B17	0.98
B18	0.66
B19	0.91
B20	0.99
B21	0.71
B22	0.82
B23	0.94
B24	0.98
B25	0.82
B26	1.09

biological target: gp120 CAAN (HIV (CAAN)); experiment: single-point ELISA at EC50 conc. of A-1

Binder	ELISA A450 [A450]
B1	0.77
B2	1.04
B3	1.05
B4	0.98
B5	1.18
B6	0.68
B7	1.16
B8	0.86
B9	1.06
B10	0.86
B11	0.9
B12	0.92
B13	0.9
B14	0.92
B15	1.02
B16	0.97
B17	1.08
B18	0.9
B19	0.83
B20	0.99
B21	0.86
B22	0.86
B23	1
B24	1.13
B25	0.95
B26	0.9

biological target: gp120 Bal (HIV (Bal)); experiment: single-point ELISA at EC50 conc. of A-1

Binder	ELISA A450 [A450]
B1	0.87
B2	0.98
B3	0.81
B4	0.88
B5	0.92
B6	0.93
B7	1.07
B8	0.86
B9	1.09
B10	0.89
B11	0.83
B12	0.82
B13	0.89
B14	0.91
B15	0.98
B16	0.93
B17	1.03
B18	0.95
B19	0.93
B20	1.05
B21	0.81
B22	0.76
B23	0.81
B24	0.98
B25	0.95
B26	0.98

biological target: BSA (UniProt P02769 25-607); experiment: single-point ELISA, BSA control

Binder	ELISA A450 [A450]
B1	0.07
B2	0.06
B3	0.06
B4	0.06
B5	0.07
B6	0.06
B7	0.06
B8	0.07
B9	0.07
B10	0.06
B11	0.07
B12	0.06
B13	0.08
B14	0.06
B15	0.07
B16	0.06
B17	0.06
B18	0.07
B19	0.06
B20	0.06
B21	0.06
B22	0.06
B23	0.06
B24	0.07
B25	0.06
B26	0.06
